Data set [1] has as its target OCP variant devoid of the N-terminal extension, purple fraction, ΔNTE(P) (Synechocystis) (UniProt P74102). Description: SEC. In general terms: SEC sorts molecules by how far they enter the pores of the column.
The target of data set [2] is T1, OCP variant devoid of the N-terminal extension, orange fraction, ΔNTE(O) (Synechocystis, UniProt P74102 21-317).
T1 sequence: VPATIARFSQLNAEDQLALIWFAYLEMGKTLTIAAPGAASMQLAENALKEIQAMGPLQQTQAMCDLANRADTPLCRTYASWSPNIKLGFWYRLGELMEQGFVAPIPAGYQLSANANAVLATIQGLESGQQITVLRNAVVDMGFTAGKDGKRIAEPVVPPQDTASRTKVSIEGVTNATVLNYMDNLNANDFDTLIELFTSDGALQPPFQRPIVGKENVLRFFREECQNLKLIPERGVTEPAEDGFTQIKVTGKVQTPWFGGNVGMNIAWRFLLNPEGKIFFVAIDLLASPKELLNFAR
Description: SEC.

The data set “cross-linking” concerns the molecule itself. In words: cross-linking.
Data set [3] has as its target T2, Orange Carotenoid Protein, wildtype, His6-tagged, Synechocystis (OCP^WT) (Synechocystis, UniProt P74102 1-317).
T2 sequence: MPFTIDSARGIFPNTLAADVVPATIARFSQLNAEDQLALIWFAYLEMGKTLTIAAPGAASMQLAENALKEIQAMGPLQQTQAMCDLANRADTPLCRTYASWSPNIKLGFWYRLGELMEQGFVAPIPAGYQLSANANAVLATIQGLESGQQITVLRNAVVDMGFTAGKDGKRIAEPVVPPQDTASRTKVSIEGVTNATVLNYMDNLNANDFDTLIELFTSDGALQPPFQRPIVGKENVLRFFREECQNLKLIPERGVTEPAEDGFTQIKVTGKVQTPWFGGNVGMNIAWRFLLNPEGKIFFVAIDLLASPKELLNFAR
In words: cross-linking.

“OCP variant devoid of the N-terminal extension, purple fraction, ΔNTE(P) (from UniProt P74102 21-317) (domain or fragment)”: the stoichiometry N (as a rule, the number of molecules, sites or subunits per partner or assembly) in data set [1] worked out at 2.

B1: Fluorescence Recovery Protein (FRP), His6-tagged, Synechocystis (natural protein)
chain: LQTAEAPWSQAETQSAHALFRKAYQRELDGLLATVQAQASQITQIDDLWKLHDFLSAKRHEIDGKYDDRQSVIIFVFAQLLKEGLVQAEELTFLAADKQSKIKALARL
As for B1, the Kd – broadly, a measure of binding affinity in units of concentration – in data set [2] is less than 1000 nM. Also, the results for the “stoichiometry N” value (in data set [2]; in “cross-linking”; in data set [3]) were 1, 2 and 1, respectively.

The values are drawn from paper doi:10.1101/116491 (bioRxiv, 2017).
